B1: SCN1Bβ/WT (Navβ1b, sodium channel beta1b subunit) [human] / Kv4.3 (KCND3/WT) [human] (parent)
chain 1: GGCVEVDSETEAVYGMTFKILCISCKRRSETNAETFTEWTFRQKGTEEFVKILRYENEVLQLEEDERFEGRVVWNGSRGTKDLQDLSIFITNVTYNHSGDYECHVYRLLFFENYEHNTSVVKKIHIEVVDKGESGAACPFTVTHRRARWRDRWQAVDRTGWLCAWPANRPQQRAEGEGSSPSCPLQLWPLFLSSPRRGQSMPVPHRRSGYRTQLCHLCCMTSGRCLLSLSQRVVLGLPGIIIRCVSRGVV
chain 2: MAAGVAAWLPFARAAAIGWMPVANCPMPLAPADKNKRQDELIVLNVSGRRFQTWRTTLERYPDTLLGSTEKEFFFNEDTKEYFFDRDPEVFRCVLNFYRTGKLHYPRYECISAYDDELAFYGILPEIIGDCCYEEYKDRKRENAERLMDDNDSENNQESMPSLSFRQTMWRAFENPHTSTLALVFYYVTGFFIAVSVITNVVETVPCGTVPGSKELPCGERYSVAFFCLDTACVMIFTVEYLLRLFAAPSRYRFIRSVMSIIDVVAIMPYYIGLVMTNNEDVSGAFVTLRVFRVFRIFKFSRHSQGLRILGYTLKSCASELGFLLFSLTMAIIIFATVMFYAEKGSSASKFTSIPASFWYTIVTMTTLGYGDMVPKTIAGKIFGSICSLSGVLVIALPVPVIVSNFSRIYHQNQRADKRRAQKKARLARIRVAKTGSSNAYLHSKRNGLLNEALELTGTPEEEHMGKTTSLIESQHHHLLHCLEKTTGLSYLVDDPLLSVRTSTIKNHEFIDEQMFEQNCMESSMQNYPSTRSPSLSSHPGLTTTCCSRRSKKTTHLPNSNLPATRLRSMQELSTIHIQGSEQPSLTTSRSSLNLKADDGLRPNCKTSQITTAIISIPTPPALTPEGESRPPPASPGPNTNIPSIASNVVKVSAL

Variants of: B1
Assay: co-immunoprecipitation (IP anti-KCND3, immunoblot anti-SCN1Bβ), band quantification
Settings: with Kv4.3 (KCND3/WT) [human]; HEK293 cells co-transfected with KCND3/WT and SCN1Bβ; parent: 1; read off a plot

ratio to parent | Variant
1.2 | chain 1 R232T
1 | chain 1 S230R

— article PMC6201368
